Consider 11 molecules from US20180273635A1 (Zymeworks, published 2018).

The target of test [1] is T1, Recombinant human HER2 (human, UniProt P04626 23-652).
T1 construct: extracellular domain; analyte of the SPR assays; also called HER2 ECD; ECD2 of HER2
Briefly: SPR, variant captured on anti-human Fc, HER2 flowed, 25 C, pre-SEC.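 Note: HER2 extracellular domain binding on Biacore T200, CM5 chip with amine-coupled anti-human Fc, duplicate antigen dilutions, global 1:1 Langmuir fit, measured after protein A purification.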
Procedure: (§1) The affinity towards HER2 ECD of the samples was measured by SPR on a Biacore T200 as follows. Between 2000 and 4000 RU of anti-human Fc injected at concentration between 5 and 10 μg/ml was immobilized on a CM5 chip using standard amine coupling. Antigen-binding constructs were captured on the anti-human Fc (injected at concentration at 0.51 microg/mL in PBST, 1 min at 10 microl/min) at response levels ranging from 120-270 RU. […] HER2 dilutions were analyzed in duplicates. Sensograms were fit globally to a 1: 1 Langmuir binding model, using the software provided with the Biacore T200. All experiments were conducted at 25° C.
(§2) The affinity of antigen-binding constructs in OA format was determined by SPR following protein A purification. […] Antigen-binding constructs in FSA format were purified by protein A affinity and SEC prior to assessment of affinity by SPR.

The target of test [2] is T1, Recombinant human HER2. Briefly: SPR, pre-SEC; ratio to WT v10013.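 Note: SPR on Biacore T200 at 25 °C, constructs captured via anti-human Fc on CM5 chip, HER2 ECD as analyte, 1:1 Langmuir global fit, after protein A purification.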 A general note: Surface plasmon resonance follows binding to a sensor surface in real time, without labels.
Procedure: as §1, §2
Test [3] deals with T2, Recombinant human HER2 (human, UniProt P04626 23-652).
T2 construct: extracellular domain; Analyte of the SPR assays; also called HER2 ECD; ECD2 of HER2
As to the kind of experiment: SPR, Biacore T200, 25 C; variant captured on anti-human Fc, HER2 flowed.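 Note: HER2 extracellular domain analyte run as duplicate dilutions over amine-coupled anti-Fc on a CM5 chip, rates from global sensorgram fitting with a 1:1 Langmuir model.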

B1: variant 12475 (antibody, human IgG1, kappa)
heavy: EVQLVESGGGLVQPGGSLRLSCAASGFRFTDYTMDWVRQAPGKGLEWVADVNPNSGGSIYNQRFKGRFTLSVDRSKNTLYLQMNSLRAEDTAVYYCARNLGPSFYFDYWGQGTLVTVSSASTKGPSVFPLAPSSKSTSGGTAALGCLVKDYFPEPVTVSWNSGALTSGVHTFPAVLQSSGLYSLSSVVTVPSSSLGTQTYICNVNHKPSNTKVDKKVEPKSCDKTHTCPPCPAPELLGGPSVFLFPPKPKDTLMISRTPEVTCVVVDVSHEDPEVKFNWYVDGVEVHNAKTKPREEQYNSTYRVVSVLTVLHQDWLNGKEYKCKVSNKALPAPIEKTISKAKGQPREPQVYVYPPSRDELTKNQVSLTCLVKGFYPSDIAVEWESNGQPENNYKTTPPVLDSDGSFALVSKLTVDKSRWQQGNVFSCSVMHEALHNHYTQKSLSLSPG
light: not shown
chain: not shown
notes: one-armed (OA) pertuzumab variant, HC T28R (Kabat); also called v12475
As usually defined, the Kd is the concentration at which binding is half-saturated. For the molecule B1, the Kd in test [1] was found to be 45 nM. Moreover, in test [2], the “Ka, mut/Ka, WT” value is 0.4.

B2: variant 12492 (antibody, human IgG1, kappa)
heavy: EVQLVESGGGLVQPGGSLRLSCAASGFTFTDYTMDWVRQAPGKGLEWVADVNPNSGWSIYNQRFKGRFTLSVDRSKNTLYLQMNSLRAEDTAVYYCARNLGPSFYFDYWGQGTLVTVSSASTKGPSVFPLAPSSKSTSGGTAALGCLVKDYFPEPVTVSWNSGALTSGVHTFPAVLQSSGLYSLSSVVTVPSSSLGTQTYICNVNHKPSNTKVDKKVEPKSCDKTHTCPPCPAPELLGGPSVFLFPPKPKDTLMISRTPEVTCVVVDVSHEDPEVKFNWYVDGVEVHNAKTKPREEQYNSTYRVVSVLTVLHQDWLNGKEYKCKVSNKALPAPIEKTISKAKGQPREPQVYVYPPSRDELTKNQVSLTCLVKGFYPSDIAVEWESNGQPENNYKTTPPVLDSDGSFALVSKLTVDKSRWQQGNVFSCSVMHEALHNHYTQKSLSLSPG
light: not shown
chain: not shown
notes: OA pertuzumab variant, HC G56W (Kabat); also called v12492
As for B2, in test [1], the Kd is 17 nM. Besides, the “Ka, mut/Ka, WT” value in test [2] worked out at 1.1.

B3: variant 12477 (antibody, human IgG1, kappa)
heavy: EVQLVESGGGLVQPGGSLRLSCAASGFTFRDYTMDWVRQAPGKGLEWVADVNPNSGGSIYNQRFKGRFTLSVDRSKNTLYLQMNSLRAEDTAVYYCARNLGPSFYFDYWGQGTLVTVSSASTKGPSVFPLAPSSKSTSGGTAALGCLVKDYFPEPVTVSWNSGALTSGVHTFPAVLQSSGLYSLSSVVTVPSSSLGTQTYICNVNHKPSNTKVDKKVEPKSCDKTHTCPPCPAPELLGGPSVFLFPPKPKDTLMISRTPEVTCVVVDVSHEDPEVKFNWYVDGVEVHNAKTKPREEQYNSTYRVVSVLTVLHQDWLNGKEYKCKVSNKALPAPIEKTISKAKGQPREPQVYVYPPSRDELTKNQVSLTCLVKGFYPSDIAVEWESNGQPENNYKTTPPVLDSDGSFALVSKLTVDKSRWQQGNVFSCSVMHEALHNHYTQKSLSLSPG
light: not shown
chain: not shown
notes: OA pertuzumab variant, HC T30R (Kabat); also called v12477
Take B3: in test [1], the dissociation constant (Kd) is 23 nM. In addition, in test [2], the “Ka, mut/Ka, WT” value worked out at 0.9.

B4: variant 12487 (antibody, human IgG1, kappa)
heavy: EVQLVESGGGLVQPGGSLRLSCAASGFTFTDYTMDWVRQAPGKGLEWVADVNPNSGKSIYNQRFKGRFTLSVDRSKNTLYLQMNSLRAEDTAVYYCARNLGPSFYFDYWGQGTLVTVSSASTKGPSVFPLAPSSKSTSGGTAALGCLVKDYFPEPVTVSWNSGALTSGVHTFPAVLQSSGLYSLSSVVTVPSSSLGTQTYICNVNHKPSNTKVDKKVEPKSCDKTHTCPPCPAPELLGGPSVFLFPPKPKDTLMISRTPEVTCVVVDVSHEDPEVKFNWYVDGVEVHNAKTKPREEQYNSTYRVVSVLTVLHQDWLNGKEYKCKVSNKALPAPIEKTISKAKGQPREPQVYVYPPSRDELTKNQVSLTCLVKGFYPSDIAVEWESNGQPENNYKTTPPVLDSDGSFALVSKLTVDKSRWQQGNVFSCSVMHEALHNHYTQKSLSLSPG
light: not shown
chain: not shown
notes: OA pertuzumab variant, HC G56K (Kabat); also called v12487
With B4, the Kd in test [1] was found to be 44 nM. Also, in test [2], the “Ka, mut/Ka, WT” value stood at 0.4.

B5: variant 12486 (antibody, human IgG1, kappa)
heavy: EVQLVESGGGLVQPGGSLRLSCAASGFTFTDYTMDWVRQAPGKGLEWVADVNPNHGGSIYNQRFKGRFTLSVDRSKNTLYLQMNSLRAEDTAVYYCARNLGPSFYFDYWGQGTLVTVSSASTKGPSVFPLAPSSKSTSGGTAALGCLVKDYFPEPVTVSWNSGALTSGVHTFPAVLQSSGLYSLSSVVTVPSSSLGTQTYICNVNHKPSNTKVDKKVEPKSCDKTHTCPPCPAPELLGGPSVFLFPPKPKDTLMISRTPEVTCVVVDVSHEDPEVKFNWYVDGVEVHNAKTKPREEQYNSTYRVVSVLTVLHQDWLNGKEYKCKVSNKALPAPIEKTISKAKGQPREPQVYVYPPSRDELTKNQVSLTCLVKGFYPSDIAVEWESNGQPENNYKTTPPVLDSDGSFALVSKLTVDKSRWQQGNVFSCSVMHEALHNHYTQKSLSLSPG
light: not shown
chain: not shown
notes: OA pertuzumab variant, HC S54H (Kabat); also called v12486
For the molecule B5, in test [1], the equilibrium dissociation constant (Kd) came to 92 nM. For the same molecule, the “Ka, mut/Ka, WT” value in test [2] was 0.2.

B6: variant 12495 (antibody, human IgG1, kappa)
heavy: EVQLVESGGGLVQPGGSLRLSCAASGFTFTDYTMDWVRQAPGKGLEWVADVNPNSGGSFYNQRFKGRFTLSVDRSKNTLYLQMNSLRAEDTAVYYCARNLGPSFYFDYWGQGTLVTVSSASTKGPSVFPLAPSSKSTSGGTAALGCLVKDYFPEPVTVSWNSGALTSGVHTFPAVLQSSGLYSLSSVVTVPSSSLGTQTYICNVNHKPSNTKVDKKVEPKSCDKTHTCPPCPAPELLGGPSVFLFPPKPKDTLMISRTPEVTCVVVDVSHEDPEVKFNWYVDGVEVHNAKTKPREEQYNSTYRVVSVLTVLHQDWLNGKEYKCKVSNKALPAPIEKTISKAKGQPREPQVYVYPPSRDELTKNQVSLTCLVKGFYPSDIAVEWESNGQPENNYKTTPPVLDSDGSFALVSKLTVDKSRWQQGNVFSCSVMHEALHNHYTQKSLSLSPG
light: not shown
chain: not shown
notes: OA pertuzumab variant, HC I58F (Kabat); also called v12495
In the case of B6, the Kd in test [1] came to 50 nM. Besides, in test [2], the “Ka, mut/Ka, WT” value worked out at 0.4.

B7: variant 12476 (antibody, human IgG1, kappa)
heavy: EVQLVESGGGLVQPGGSLRLSCAASGFKFTDYTMDWVRQAPGKGLEWVADVNPNSGGSIYNQRFKGRFTLSVDRSKNTLYLQMNSLRAEDTAVYYCARNLGPSFYFDYWGQGTLVTVSSASTKGPSVFPLAPSSKSTSGGTAALGCLVKDYFPEPVTVSWNSGALTSGVHTFPAVLQSSGLYSLSSVVTVPSSSLGTQTYICNVNHKPSNTKVDKKVEPKSCDKTHTCPPCPAPELLGGPSVFLFPPKPKDTLMISRTPEVTCVVVDVSHEDPEVKFNWYVDGVEVHNAKTKPREEQYNSTYRVVSVLTVLHQDWLNGKEYKCKVSNKALPAPIEKTISKAKGQPREPQVYVYPPSRDELTKNQVSLTCLVKGFYPSDIAVEWESNGQPENNYKTTPPVLDSDGSFALVSKLTVDKSRWQQGNVFSCSVMHEALHNHYTQKSLSLSPG
light: not shown
chain: not shown
notes: OA pertuzumab variant, HC T28K (Kabat); also called v12476
Consider B7, for which the Kd in test [1] was 61 nM. For the same molecule, the “Ka, mut/Ka, WT” value in test [2] is 0.3.

B8: variant 12496 (antibody, human IgG1, kappa)
heavy: EVQLVESGGGLVQPGGSLRLSCAASGFTFTDYTMDWVRQAPGKGLEWVADVNPNSGGSYYNQRFKGRFTLSVDRSKNTLYLQMNSLRAEDTAVYYCARNLGPSFYFDYWGQGTLVTVSSASTKGPSVFPLAPSSKSTSGGTAALGCLVKDYFPEPVTVSWNSGALTSGVHTFPAVLQSSGLYSLSSVVTVPSSSLGTQTYICNVNHKPSNTKVDKKVEPKSCDKTHTCPPCPAPELLGGPSVFLFPPKPKDTLMISRTPEVTCVVVDVSHEDPEVKFNWYVDGVEVHNAKTKPREEQYNSTYRVVSVLTVLHQDWLNGKEYKCKVSNKALPAPIEKTISKAKGQPREPQVYVYPPSRDELTKNQVSLTCLVKGFYPSDIAVEWESNGQPENNYKTTPPVLDSDGSFALVSKLTVDKSRWQQGNVFSCSVMHEALHNHYTQKSLSLSPG
light: not shown
chain: not shown
notes: OA pertuzumab variant, HC I58Y (Kabat); also called v12496
As to B8, the Kd in test [1] worked out at 66 nM. Further, in test [2], the “Ka, mut/Ka, WT” value turned out to be 0.3.

B9: variant 12488 (antibody, human IgG1, kappa)
heavy: EVQLVESGGGLVQPGGSLRLSCAASGFTFTDYTMDWVRQAPGKGLEWVADVNPNSGRSIYNQRFKGRFTLSVDRSKNTLYLQMNSLRAEDTAVYYCARNLGPSFYFDYWGQGTLVTVSSASTKGPSVFPLAPSSKSTSGGTAALGCLVKDYFPEPVTVSWNSGALTSGVHTFPAVLQSSGLYSLSSVVTVPSSSLGTQTYICNVNHKPSNTKVDKKVEPKSCDKTHTCPPCPAPELLGGPSVFLFPPKPKDTLMISRTPEVTCVVVDVSHEDPEVKFNWYVDGVEVHNAKTKPREEQYNSTYRVVSVLTVLHQDWLNGKEYKCKVSNKALPAPIEKTISKAKGQPREPQVYVYPPSRDELTKNQVSLTCLVKGFYPSDIAVEWESNGQPENNYKTTPPVLDSDGSFALVSKLTVDKSRWQQGNVFSCSVMHEALHNHYTQKSLSLSPG
light: not shown
chain: not shown
notes: OA pertuzumab variant, HC G56R (Kabat); also called v12488
Consider B9, for which, in test [1], the Kd was found to be 30 nM. In addition, the “Ka, mut/Ka, WT” value in test [2] was found to be 0.6.

B10: variant 12481 (antibody, human IgG1, kappa)
heavy: EVQLVESGGGLVQPGGSLRLSCAASGFTFKDYTMDWVRQAPGKGLEWVADVNPNSGGSIYNQRFKGRFTLSVDRSKNTLYLQMNSLRAEDTAVYYCARNLGPSFYFDYWGQGTLVTVSSASTKGPSVFPLAPSSKSTSGGTAALGCLVKDYFPEPVTVSWNSGALTSGVHTFPAVLQSSGLYSLSSVVTVPSSSLGTQTYICNVNHKPSNTKVDKKVEPKSCDKTHTCPPCPAPELLGGPSVFLFPPKPKDTLMISRTPEVTCVVVDVSHEDPEVKFNWYVDGVEVHNAKTKPREEQYNSTYRVVSVLTVLHQDWLNGKEYKCKVSNKALPAPIEKTISKAKGQPREPQVYVYPPSRDELTKNQVSLTCLVKGFYPSDIAVEWESNGQPENNYKTTPPVLDSDGSFALVSKLTVDKSRWQQGNVFSCSVMHEALHNHYTQKSLSLSPG
light: not shown
chain: not shown
notes: OA pertuzumab variant, HC T30K (Kabat); also called v12481
With B10, the Kd in test [1] worked out at 310 nM. Moreover, the “Ka, mut/Ka, WT” value in test [2] turned out to be 0.1.

B11: Variant 14052 (antibody, human IgG1, kappa)
heavy: EVQLVESGGGLVQPGGSLRLSCAASGFTFTDYTMDWVRQAPGKGLEWVADVNPNSGGSIYNQRFKGRFTLSVDRSKNTLYLQMNSLRAEDTAVYYCARNLGPWFYFDYWGQGTLVTVSSASTKGPSVFPLAPSSKSTSGGTAALGCLVKDYFPEPVTVSWNSGALTSGVHTFPAVLQSSGLYSLSSVVTVPSSSLGTQTYICNVNHKPSNTKVDKKVEPKSCDKTHTCPPCPAPELLGGPSVFLFPPKPKDTLMISRTPEVTCVVVDVSHEDPEVKFNWYVDGVEVHNAKTKPREEQYNSTYRVVSVLTVLHQDWLNGKEYKCKVSNKALPAPIEKTISKAKGQPREPQVYVYPPSRDELTKNQVSLTCLVKGFYPSDIAVEWESNGQPENNYKTTPPVLDSDGSFALVSKLTVDKSRWQQGNVFSCSVMHEALHNHYTQKSLSLSPG
light: not shown
chain: not shown
notes: OA (one-armed) format; clones 7852, 8781, 4372; also called v14052
In general, koff refers to a measure of how fast the partners let go of each other. As a reminder, the kon is a measure of how fast the partners come together. Regarding B11, in test [3], the Kd was 55 nM, the koff amounted to 0.0053 s⁻¹ and the kon stood at 97000 M⁻¹ s⁻¹.
